Measured values reported in publication PMC11352701.

Biological target: dFMRP (dFmr1-PD) (UniProt Q9NFU0 1-684)
Test: EMSA

Sequence of dFMRP (dFmr1-PD) (Q9NFU0 whole entry): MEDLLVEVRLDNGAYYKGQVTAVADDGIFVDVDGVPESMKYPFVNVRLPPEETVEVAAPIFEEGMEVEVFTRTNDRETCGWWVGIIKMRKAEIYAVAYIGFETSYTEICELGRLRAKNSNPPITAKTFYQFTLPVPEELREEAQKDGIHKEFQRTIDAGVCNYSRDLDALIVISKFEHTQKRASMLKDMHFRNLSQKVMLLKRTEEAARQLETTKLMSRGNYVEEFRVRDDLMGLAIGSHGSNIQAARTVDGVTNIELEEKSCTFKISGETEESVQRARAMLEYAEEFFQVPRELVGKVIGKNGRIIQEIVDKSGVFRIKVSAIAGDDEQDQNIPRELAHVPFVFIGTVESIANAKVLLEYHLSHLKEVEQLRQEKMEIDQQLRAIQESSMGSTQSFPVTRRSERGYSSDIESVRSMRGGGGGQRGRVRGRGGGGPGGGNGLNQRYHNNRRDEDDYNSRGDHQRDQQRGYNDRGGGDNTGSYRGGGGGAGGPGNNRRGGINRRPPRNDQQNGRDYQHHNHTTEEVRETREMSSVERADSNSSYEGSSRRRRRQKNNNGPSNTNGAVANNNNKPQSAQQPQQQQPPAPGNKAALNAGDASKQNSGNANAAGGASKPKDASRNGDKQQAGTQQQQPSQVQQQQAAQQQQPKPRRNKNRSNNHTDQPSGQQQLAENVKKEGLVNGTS

Binder: AAAAAAAAAAAAAA (ssRNA) [A14 control RNA]
- binding result: no binding
